The target of test [1] is Hemagglutinin (HA) of Influenza SW [change] 1089/09 swine pandemic H1N1 (inactivated subunits, vaccine) (Influenza A virus SW [change] swine pandemic H1N1). Description: cell-based or functional assay.
The target in test [2] is Hemagglutinin (HA) of Avian 29/05/06 H5N1 (inactivated vaccine) (Influenza A virus Avian 29/05/06 H5N1). Description: cell-based or functional assay.

Consider “… (SEQ ID NO: 2), bLf C-lobe peptide 506-522”, for which the HI titre in test [1] turned out to be 46 fM; in test [2], 70 fM.

As to “Lactoferrin from bovine milk (bLf) (from UniProt P24627 20-708)”, the HI titre is 46.5 fM in test [1] and 2900 fM in test [2].

For the substance “… (SEQ ID NO: 1), bLf C-lobe peptide 418-429”, the HI titre was found to be 5.8 fM in test [1] and 18 fM in test [2].

The record behind these values is patent US20140322196A1.
